Results reported in US8895526B2, “Identification of RNAI targets and use of RNAI for rational therapy of chemotherapy-resistant leukemia and other cancers” (Cold Spring Harbor Laboratory, priority 2009, dated 2014).

What was measured:
[1] = system: MLL-AF9/Nras leukemia cells; conditions: different concentrations
[2] = system: non-transformed 32D cell line; conditions: different concentrations
[3] = Tolerability of anthracycline in mice; type: in vivo; conditions: applied intraperitoneally
Description: To study factors that influence the outcome of conventional AML therapy in mice, we established a simple chemotherapy regimen involving intraperitoneal injection of cytarabine (100 mg/kg over 5 days) and doxorubicin (3 mg/kg over 3 days; FIG. 36A), which mimics the standard induction therapy used to treat AML in human patients. […] Efficacy and safety of this regimen were initially evaluated in a previously described model based on co-transduction of MLL/ENL and FLT3-ITD (Ono et al. 2005). In order to rapidly generate homogenous treatment cohorts we harvested bone marrow and spleen from terminally ill primary FLC recipient mice and transplanted 1 million leukemia cells into 20-30 secondary recipients. In initial studies, we noted that this combination therapy was not tolerated in mice when treatment was initiated based on a high leukemia burden in the peripheral blood; although the peripheral disease disappeared within two days, animals died shortly thereafter with peripheral leukopenia.

HCT116 cells [4] = assay: siRNA cytotoxicity: reduction in HCT116 culture confluency after transfection; type: cell-based, human; conditions: relative to negative control RNAi cultures
Description: siRNAs derived from the shRNAs of Example 2 were all highly cytotoxic to HCT116 cells. The siRNA sequences and shRNAs from which they were derived are shown below
Cytotoxicity was determined by the reduction in culture confluency over time after transfection of the siRNA relative to negative control RNAi cultures.

[5] = system: normal hematopoietic cells; assay: Dual-color competition assay of hematopoietic reconstitution in vivo; conditions: 4 weeks after transplantation, LMN-GFP vs mCherry control
Description: LMN vectors harboring shRNAs are transduced into fetal livers. Infected cells are subsequently transplanted into lethally irradiated recipients. This assay compares the relative contribution of the experimental shRNA (in an LMN vector harboring a GFP marker) to a control, neutral shRNA (in an LMN vector harboring a red fluorescent protein marker (mCherry)). The effect of the experimental shRNA on hematopoesis is assessed by the ratio of these two markers in subsets of peripheral blood cells, or bone marrow or spleen, measured at 4 weeks.
As an additional verification that therapy resistant AML leukemias harbor a unique sensitivity to inhibition of the identified epigenetic pathways, the influence of the epigenetics shRNAs on normal hematopoiesis was also examined in vivo following retroviral transduction of LMN (MSCV-miR30/shRNA-PGK-Neo-IRES-GFP; constructed by inserting a miR30-cassette and a PGK-NeomycinR-IRES-GFP cassette in the MSCV-backbone (Clontech)) into E13.5 fetal livers and subsequent transplantation of infected cells into lethally irradiated recipients (FIG. 27). This assay compares the relative contribution of the experimental shRNA vector (linked with GFP) to control, neutral shRNA LMN vector that harbors the red fluorescent protein (mCherry). At 4 weeks following transplantation of the mixed GFP+ and mCherry+ cells into recipient animals, the ratio of these two colors is measured in subsets of peripheral blood cells of various hematopoietic lineages or in bone marrow and spleens by co-staining with surface markers (e.g. Mac1, Gr1 for myeloid, B220 for B-lymphoid).

Hepa1.6 cells = assay: In vitro competition assay in Hepa1.6 cells; type: cell-based, mouse; conditions: five passages 1:8
Excerpt: Two days after transduction with a GFP-tagged vector, the number of fluorescent cells was quantified. Cells were passaged 1:8 five times, and the number of GFPpositive transduced cells was quantified at each passage.

HCT116 cells [6] = assay: HCT116 proliferation assay: cell counts of shRNA-transduced cultures; type: cell-based, human; conditions: 5 days post-infection; normalized to EBNA1mi1666 and Lucifmi203 cultures
Description: HCT116 cultures in 24-well plates were infected separately with amphotropic retrovirus encoding 254 different shRNAs targeting 83 cell cycle and/or E2F regulated genes. On day 1 following infection each culture was suspended in media containing 1.5 μg/mL puromycin to select for cells transduced with the hairpins, then seeded to 6-well plates. On day 5 following infection, cells in each culture were suspended in media and counted using a hemacytometer. Results for each culture were normalized to the average of the number of cells counted in cultures transduced with hairpins targeting either of two different genes not endogenous to HCT116 cells (EBNA1 and Ff-luciferase).
About 24 hours prior to infection, 150,000 HCT116 cells were seeded per well of a 24-well plate in 0.4 mL DMEM+10% FBS. At the time of the first round of infection, culture media was aspirated from each HCT116 culture and 0.5 mL media containing virus, obtained from ˜36-hour post-transfection packaging cell culture as described above, was added to each HCT116 culture. Each HCT116 culture was infected with virus encoding a particular shRNA. […]
About 24 hours after the second round of infection of the HCT116 cultures, cells from each culture were suspended and seeded to 6-well plates in 2 mL DMEM+10% FBS+1.5 μg/mL puromycin per well. […] Following two more days of growth (day 5 post-infection), cells in each culture were suspended in complete DMEM and cell numbers per culture were counted using a hemacytometer. […]
In each experiment, HCT116 cells were also transduced with hairpins against EBNA1 (EBNA1mi1666) and Ff-luciferase (lucifmi203). […] Similar to cultures transduced with other shRNAs, on day 5 post-infection, HCT116 cells in cultures transduced with either EBNA1mi1666 or Lucifmi203 were suspended and counted using a hemacytometer. […]
The average cell number in HCT116 cultures transduced with EBNA1mi1666 and Lucifmi203 was calculated for each experiment and cell numbers in cultures transduced with the other shRNAs in the given experiment were normalized to this value. […]

[7] = system: tet-on competent MLL/AF9+Nras AML; assay: Pooled negative selection RNAi screening (deep sequencing); type: cell-based, mouse; conditions: deep sequencing reads, On Dox compared to T0
How it was run: (§1)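 A pool of 1230 tet-regulated shRNAs (TRMPV-type) was retrovirally transduced at mostly single copy and ~1000-fold representation into tet-on MLL/AF9+Nras AML cells or immortalized murine embryonic fibroblasts, then cultured on or off doxycycline. shRNA-expressing cells were FACS-sorted, and shRNA representation was quantified by PCR and deep sequencing of genomic DNA, with depletion on dox compared against t0 and off dox.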

[8] = system: immortalized murine embryonic fibroblasts (Mef); assay: as above; type: cell-based; conditions: deep sequencing reads, on dox compared to initial representation
How it was run: as §1

N[C@@H]1C[C@H]1c1ccccc1 (racemic) [tranylcypromine]
proliferation [1]: dose-dependent inhibition | growth (Molm13): an effect on growth | growth (Kasumi1): an effect on growth | growth (HL60): an effect on growth | growth [2]: no impact

COc1cccc2c1C(=O)c1c(O)c3c(c(O)c1C2=O)C[C@@](O)(C(C)=O)C[C@@H]3O[C@H]1C[C@H](N)[C@H](O)[C@H](C)O1 [daunorubicin]
toxicity [3]: high toxicity

RPA3si1417: siRNA CAUCUUAUGUCCAGUUUAA (SEQ ID NO: 1), derived from v2HS_32101 (listed as RNA, chemistry not fully specified)
cytotoxicity (reduction in culture confluency over time) (HCT116 cells [4]): more cytotoxic than RPA3si1403

B1: Suz12.1676: shRNA, SEQ ID NO: 75 (nucleic acid)
guide: TGCTGTTGACAGTGAGCGATAGGATAGATGTTTCAATCAATAGTGAAGCCACAGATGTATTGATTGAAACATCTATCCTAGTGCCTACTGCCTCGGA
impact on proliferation of normal hematopoietic cells in vivo [5]: little, if any impact

B2: Eed.1829: shRNA targeting Eed; probably Eed.1820, SEQ ID NO: 227 (nucleic acid)
guide: TGCTGTTGACAGTGAGCGCTAGAAGTAATGTATCTTGCTATAGTGAAGCCACAGATGTATAGCAAGATACATTACTTCTATTGCCTACTGCCTCGGA
impact on proliferation of normal hematopoietic cells in vivo [5]: little, if any impact

B3: Smarcd1.1858: shRNA, SEQ ID NO: 70 (nucleic acid)
guide: TGCTGTTGACAGTGAGCGCTAGGACCTCTAGATAGTGTTATAGTGAAGCCACAGATGTATAACACTATCTAGAGGTCCTATTGCCTACTGCCTCGGA
impact on proliferation of normal hematopoietic cells in vivo [5]: little, if any impact

B4: shPCNA.538: shRNA, SEQ ID NO: 56 (nucleic acid)
chain: TGCTGTTGACAGTGAGCGCGGAGTACAGCTGTGTAATAAATAGTGAAGCCACAGATGTATTTATTACACAGCTGTACTCCTTGCCTACTGCCTCGGA
competition with uninfected GFP-negative cells (Hepa1.6 cells): outcompeted by uninfected, GFP-negative cells

B5: Orc2mil981: shRNA targeting ORC2, SEQ ID NO: 19 (nucleic acid)
chain: TGCTGTTGACAGTGAGCGAGAGGCTTGAAGCTTTCCTTTATAGTGAAGCCACAGATGTATAAAGGAAAGCTTCAAGCCTCCTGCCTACTGCCTCGGA
Cell # in culture/average cell number in negative control cultures (HCT116 cells [6]): 0.8496

B6: mi550: shRNA targeting ORC1, SEQ ID NO: 17 (nucleic acid)
chain: TGCTGTTGACAGTGAGCGCGGAAATATTCTGGTATGATTATAGTGAAGCCACAGATGTATAATCATACCAGAATATTTCCTTGCCTACTGCCTCGGA
Cell # in culture/average cell number in negative control cultures (HCT116 cells [6]): 0.8719

B7: Orc2mil903: shRNA targeting ORC2, SEQ ID NO: 18 (nucleic acid)
chain: TGCTGTTGACAGTGAGCGAGGAACTGATGGAGTAGAGTATTAGTGAAGCCACAGATGTAATACTCTACTCCATCAGTTCCCTGCCTACTGCCTCGGA
Cell # in culture/average cell number in negative control cultures (HCT116 cells [6]): 0.7115

B8: BRAF.3826: neutral control shRNA, SEQ ID NO: 192 (nucleic acid)
chain: TGCTGTTGACAGTGAGCGCCCCATTGTTTCTTCCAACTTATAGTGAAGCCACAGATGTATAAGTTGGAAGAAACAATGGGATGCCTACTGCCTCGGA
Fold depletion in AML [7]: 0.92 Fold | Fold depletion in Mef [8]: 0.87 Fold

B9: BRAF.5053: neutral control shRNA, SEQ ID NO: 193 (nucleic acid)
chain: TGCTGTTGACAGTGAGCGCTAGGGTGATGTCTCACTTGAATAGTGAAGCCACAGATGTATTCAAGTGAGACATCACCCTATTGCCTACTGCCTCGGA
Fold depletion in AML [7]: 0.66 Fold | Fold depletion in Mef [8]: 0.33 Fold

B10: Kit.1241: neutral control shRNA, SEQ ID NO: 194 (nucleic acid)
chain: TGCTGTTGACAGTGAGCGATTCCGTGACATTCAACGTTTATAGTGAAGCCACAGATGTATAAACGTTGAATGTCACGGAAGTGCCTACTGCCTCGGA
Fold depletion in AML [7]: 1.88 Fold | Fold depletion in Mef [8]: 0.99 Fold
